PMC9191643, “Cryo-EM structure of DNA-bound Smc5/6 reveals DNA clamping enabled by multi-subunit conformational changes”

Target: Smc5 (E1015Q);Smc6 (E1048Q);Nse1;Nse2;Nse3;Nse4 (Saccharomyces cerevisiae;Saccharomyces …, UniProt Q08204;Q12749;Q07913;P38632;Q05541;P43124 1-1093;1-1114;1-336;1-267;1-303;1-402, E1015Q|E1048Q||||)
Assay: cryo-EM structure (3.8 A); 1 mM ATP, 2 mM MgCl2; 0.3 mg/mL complex, 1.5 uM DNA; Cryo-EM sample: 1 mM ATP, 2 mM MgCl2, 1.5 uM dsDNA, 4 C, 2 h; complex from size exclusion in 25 mM Hepes pH 7.5, 250 mM NaCl, 1 mM DTT (final binding buffer not stated)
Conditions: protein: recombinant;recombinant;recombinant;recombinant;recombinant;recombinant; copies: 1;1;1;1;1;1; blunt

B1: cryo-EM dsDNA (dsDNA)
DNA 1: TGGTTTTTATATGTTTTGTTATGTATTGTTTATTTTCCCTTTAATTTTAGGATATGAAAACAAGAATTTATC
DNA 2: GATAAATTCTTGTTTTCATATCCTAAAATTAAAGGGAAAATAAACAATACATAACAAAACATATAAAAACCA
B1: binds.
